This series has as its target angiogenin H114A (hAng, RNase 5) (Homo sapiens, UniProt P03950 25-147, H138A). Description: X-ray crystallography; sequence-independent backbone contacts except Arg24 (C38, C32); RNA does not reach active site; crystals at 277 K; Complex: 20 mM Tris pH 8.0, 120 mM NaCl, on ice 30 min, RNA:protein 1.2:1; crystallization reservoir 200 mM NaCl, 20% PEG 6000, 100 mM HEPES pH 7.0, 277 K. The following applies: protein: recombinant; tags: none stated (pET-26b(+)); chain copies: 2; self-duplex of 2 identical strands, blunt; designed as stem-loop but duplex in crystal.

This is an account of results in article PMC9435672, “Structure of angiogenin dimer bound to double-stranded RNA”.

Sequence of angiogenin H114A (hAng, RNase 5) (P03950 25-147 H138A): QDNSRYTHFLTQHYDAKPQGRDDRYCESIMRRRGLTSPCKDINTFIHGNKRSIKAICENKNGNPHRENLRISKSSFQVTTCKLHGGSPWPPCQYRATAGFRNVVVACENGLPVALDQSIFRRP

B1: N19-RNA duplex (dsRNA)
RNA 1: GCCCGCCUGUCACGCGGGC
RNA 2: GCCCGCCUGUCACGCGGGC
As for B1, the binding result is reported as “binds”.
